We go through 9 molecules from patent publication US20200317768A1 (published 2020).

Broadly, the koff is the first-order rate constant of dissociation. One may read the kon as the second-order rate constant of association.

In assay [1] the target is T1, Human latent myostatin (human, UniProt O14793 25-266; O14793 267-375).
T1 construct: also called human myostatin latent form
T1 sequence 1: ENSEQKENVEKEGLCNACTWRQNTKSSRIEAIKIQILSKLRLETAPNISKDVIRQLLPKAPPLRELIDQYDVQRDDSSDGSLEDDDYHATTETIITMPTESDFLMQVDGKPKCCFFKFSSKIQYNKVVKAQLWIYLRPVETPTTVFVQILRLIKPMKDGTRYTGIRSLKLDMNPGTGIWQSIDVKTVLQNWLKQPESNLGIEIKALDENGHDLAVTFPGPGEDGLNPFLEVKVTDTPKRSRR
T1 sequence 2: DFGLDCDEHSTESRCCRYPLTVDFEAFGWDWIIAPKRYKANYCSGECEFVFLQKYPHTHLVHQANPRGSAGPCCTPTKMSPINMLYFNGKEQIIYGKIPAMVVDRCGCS
The assay is described as follows: SPR (BIACORE T200) 37C, pH 5.8, antibody captured by ProA/G. Here is the method: (§1) ProA/G (Pierce) was immobilized onto all flow cells of a CM4 chip using an amine coupling kit (GE Healthcare). All antibodies and analytes were prepared in ACES pH7.4 or pH5.8 buffer containing 20 mM ACES, 150 mM NaCl, 1.2 mM CaCl₂, 0.05% TWEEN®) 20, 0.005% NaN₃. […] Human, cyno, and mouse latent myostatin was injected at 3.125 to 50 nM prepared by two-fold serial dilution, followed by dissociation. The sensor surface was regenerated each cycle with 10 mM Glycine HCl pH1.5. Binding affinity was determined by processing and fitting the data to a 1:1 binding model using BIACORE® T200 Evaluation software, version 2.0 (GE Healthcare).
A general note: Surface plasmon resonance follows binding to a sensor surface in real time, without labels.

For assay [2], the target named is T2, Mouse latent myostatin (mouse, UniProt O08689 26-267; O08689 268-376).
T2 construct: Latent form = complex of two propeptides and the mature dimer
T2 sequence 1: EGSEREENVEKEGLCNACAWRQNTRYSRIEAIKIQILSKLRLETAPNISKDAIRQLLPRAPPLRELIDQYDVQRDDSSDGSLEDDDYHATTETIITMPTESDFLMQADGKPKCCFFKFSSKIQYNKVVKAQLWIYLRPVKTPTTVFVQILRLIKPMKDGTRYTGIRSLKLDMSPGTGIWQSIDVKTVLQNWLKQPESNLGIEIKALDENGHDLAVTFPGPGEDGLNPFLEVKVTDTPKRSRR
T2 sequence 2: T1 sequence 2
The description is as above. Here is the method:
as §1

In assay [3] the target is T3, Cynomolgus monkey latent myostatin (cynomolgus monkey, UniProt Q95J86 25-266; Q95J86 267-375).
T3 construct: Latent form = complex of two propeptides and the mature dimer; also called Cyno latent myostatin
T3 sequence 1: T1 sequence 1 with V52A
T3 sequence 2: T1 sequence 2
The description is as above. Here is the method:
as §1

The target of assay [4] is T1, Human latent myostatin. The assay is described as follows: SPR 37C; KD pH 5.8 / KD pH 7.4. Here is the method: as §1
For assay [5], the target named is T2, Mouse latent myostatin. As to the kind of experiment: SPR 37C; KD pH 5.8 / KD pH 7.4. Here is the method: as §1
Assay [6] addresses T3, Cynomolgus monkey latent myostatin. As to the kind of experiment: SPR 37C; KD pH 5.8 / KD pH 7.4. Here is the method: as §1
Assay [7] has as its target T1, Human latent myostatin. As to the kind of experiment: SPR (BIACORE T200) 37C, pH 7.4, antibody captured by ProA/G. Here is the method:
as §1

For assay [8], the target named is T2, Mouse latent myostatin. Described as above. Here is the method: as §1
The target of assay [9] is T3, Cynomolgus monkey latent myostatin. Described as above. Here is the method: as §1
The target of assay [10] is T4, Human latent myostatin (human, UniProt O14793 25-266; O14793 267-375).
T4 construct: Biotinylated in the ELISAs; also called human myostatin latent form
T4 sequence 1: T1 sequence 1
T4 sequence 2: T1 sequence 2
The assay is described as follows: SPR (BIACORE T200), 37 C, pH7.4, 1:1 fit; title prints avidity, by the text the affinity condition (capture 18.5 RU). Here is the method: (§2) The kinetic parameters of anti-latent myostatin antibodies against human, cynomolgus monkey (cyno), and mouse latent myostatin were assessed at 37° C. at pH7.4 using a BIACORE® T200 instrument (GE Healthcare). ProA/G (Pierce) was immobilized onto all flow cells of a CM4 chip using amine coupling kit (GE Healthcare). Anti-latent myostatin antibody and analytes were prepared in ACES pH7.4 (20 mM ACES, 150 mM NaCl, 1.2 mM CaCl₂), 0.05% TWEEN® 20, 0.005% NaN₃). […] Then human, cyno, or mouse latent myostatin was injected at 3.125 to 50 nM prepared by two-fold serial dilution, followed by dissociation. The sensor surface was regenerated with 25 mM NaOH. Kinetic parameters were determined by processing and fitting the data to a 1:1 binding model using BIACORE® T200 Evaluation software, version 2.0 (GE Healthcare).
(§3) All experimental settings were the same as in Example 7, except that measurements were also performed in ACES pH5.8 buffer in addition to ACES pH7.4 condition. Some antibodies were only measured against human latent myostatin. Antibody capture level was aimed at 185 RU and 18.5 RU, for avidity and affinity assay, respectively. Kinetic parameters were determined using 1:1 Binding fitting using BIACORE® T200 Evaluation software, version 2.0 (GE Healthcare).

The target of assay [11] is T4, Human latent myostatin. The assay is described as follows: SPR (BIACORE T200), 37 C, pH7.4, avidity condition (capture 185 RU), 1:1 fit; pH 7.4. Here is the method: as §2, §3
The target of assay [12] is T4, Human latent myostatin. As to the kind of experiment: SPR (BIACORE T200), 37 C, pH5.8, avidity condition (capture 185 RU), 1:1 fit; pH 5.8. Here is the method:
as §2, §3

Substitutions are numbered along the chain they refer to.

B1: MS_M103240H795-SG1/M103202L1045-SK1 (antibody, human IgG1, kappa)
heavy: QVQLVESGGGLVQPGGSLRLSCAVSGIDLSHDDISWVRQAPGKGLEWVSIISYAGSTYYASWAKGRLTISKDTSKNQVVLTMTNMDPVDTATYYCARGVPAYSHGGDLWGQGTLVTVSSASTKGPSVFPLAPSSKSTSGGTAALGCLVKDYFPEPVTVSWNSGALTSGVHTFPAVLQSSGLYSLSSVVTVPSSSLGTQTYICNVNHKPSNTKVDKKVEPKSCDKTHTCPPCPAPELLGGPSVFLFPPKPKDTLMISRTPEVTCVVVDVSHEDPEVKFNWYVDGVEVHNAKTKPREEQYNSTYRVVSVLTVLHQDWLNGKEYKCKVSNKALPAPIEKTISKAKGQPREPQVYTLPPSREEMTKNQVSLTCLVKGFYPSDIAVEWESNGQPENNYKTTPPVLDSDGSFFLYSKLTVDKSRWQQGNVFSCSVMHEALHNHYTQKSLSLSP
light: DIVMTQSPATLSLSPGERATLSCTTSQSVYHENWLSWFQQKPGQPPKLLIYWASTLAYGVPSRFSGSGSGTDFTLTISSLQPEDAATYYCAGGYGGGRYAFGQGTKVEIKRTVAAPSVFIFPPSDEQLKSGTASVVCLLNNFYPREAKVQWKVDNALQSGNSQESVTEQDSKDSTYSLSSTLTLSKADYEKHKVYACEVTHQGLSSPVTKSFNRGEC
notes: also called MS1032LO19-SG1
Take B1: the Kd was determined as 45.8 nM with Human latent myostatin [1]; 28.7 nM in the assay with Mouse latent myostatin [2]; 35.6 nM in [3]; 0.273 nM in the assay with Human latent myostatin [7]; 0.271 nM with Mouse latent myostatin [8]; 0.326 nM in [9]. The “ratio of KD at pH 5.8/pH 7.4” value is 168 in the assay with Human latent myostatin [4], 106 with Mouse latent myostatin [5] and 109 in [6].

B2: MS_M103205H781-SG1/M103202L719-SK1 (antibody, human IgG1, kappa, V domains shown)
VH: QVTLKESGPVLVKPTETLTLTCTVSGIDLSHTDISWVRQAPGKGLEWVGIISYAGSTYYMSWAKGRLTISKDTSKNQVVLTMTNMDPVDTATYYCARGVPAYSHGGDLWGQGTLVTVSS
VL: DIVMTQSPATLSLSPGERATLSCQSSQSVYHNNWLSWFQQKPGQPPKLLIYWASTLAFGVPSRFSGSGSGTDFTLTISSLQPEDAATYYCAGGYGGGLYAFGQGTKVEIKR
notes: also called MS1032LO02-SG1; MSLO-02
Regarding B2, the Kd in the assay with Human latent myostatin [10] stood at 1.64 nM; with Human latent myostatin [11], 0.298 nM; in the assay with Human latent myostatin [12], 24.3 nM. Besides, the koff with Human latent myostatin [10] worked out at 0.00179 s⁻¹; with Human latent myostatin [11], 0.000249 s⁻¹; with Human latent myostatin [12] it was 0.0414 s⁻¹. Further, the kon came out at 1.09e+06 M⁻¹ s⁻¹ in the assay with Human latent myostatin [10], 836000 M⁻¹ s⁻¹ in the assay with Human latent myostatin [11] and 1.7e+06 M⁻¹ s⁻¹ in the assay with Human latent myostatin [12].

B3: MS_M103205H1004-SG1/M103202L889-SK1 (antibody, human IgG1, kappa, V domains shown)
VH: B2 VH with T32D, T57M, M60A, L108K
VL: B2 VL with Q24T, N32A, F58Y, L98R
notes: also called MS1032LO07-SG1
As to B3, the Kd with Human latent myostatin [1] came out at 46.2 nM; with Mouse latent myostatin [2], 30.8 nM; in assay [3], 34.7 nM; in the assay with Human latent myostatin [7], 0.275 nM; with Mouse latent myostatin [8] it was 0.319 nM; in assay [9], 0.339 nM. In addition, the results for the “ratio of KD at pH 5.8/pH 7.4” value (with Human latent myostatin [4]; with Mouse latent myostatin [5]; in [6]) were 168, 97 and 102, respectively.

B4: MS_M103205H1795-SG1/M103202L1060-SK1 (antibody, human IgG1, kappa, V domains shown)
VH: B2 VH with T32D, M60A
VL: B2 VL with Q24T, Y30F, N32E, F58W, L98R
notes: also called MS1032LO24-SG1
On to B4, for which the Kd turned out to be 1.52 nM in the assay with Human latent myostatin [1]; 1.02 nM with Mouse latent myostatin [2]; 0.929 nM in [3]; 0.164 nM with Human latent myostatin [7]; 0.176 nM with Mouse latent myostatin [8]; 0.189 nM in assay [9]. Moreover, the “ratio of KD at pH 5.8/pH 7.4” value amounted to 9 in the assay with Human latent myostatin [4], 6 with Mouse latent myostatin [5] and 5 in assay [6].

B5: MS_M103205H1046-SG1/M103202L889-SK1 (antibody, human IgG1, kappa, V domains shown)
VH: B2 VH with S56K, M60A, G65K
VL: B2 VL with Q24T, N32A, F58Y, L98R
notes: also called MS1032LO10-SG1
Consider B5, for which the Kd with Human latent myostatin [1] was 43.8 nM; with Mouse latent myostatin [2] it was 10.9 nM; in [3] it was 16.1 nM; with Human latent myostatin [7], 0.351 nM; with Mouse latent myostatin [8] it was 0.334 nM; in [9], 0.419 nM. In addition, the “ratio of KD at pH 5.8/pH 7.4” value with Human latent myostatin [4] was found to be 125; in the assay with Mouse latent myostatin [5] it was 35; in assay [6], 38.

B6: MS_M103205H1057-SG1/M103202L889-SK1 (antibody, human IgG1, kappa, V domains shown)
VH: B2 VH with T57K, Y59K, M60A
VL: B2 VL with Q24T, N32A, F58Y, L98R
notes: also called MS1032LO12-SG1
Consider B6, for which the Kd was 84.9 nM with Human latent myostatin [1]; 24.8 nM with Mouse latent myostatin [2]; 35.8 nM in assay [3]; 0.407 nM in the assay with Human latent myostatin [7]; 0.413 nM with Mouse latent myostatin [8]; 0.492 nM in assay [9]. The “ratio of KD at pH 5.8/pH 7.4” value with Human latent myostatin [4] is 209; in the assay with Mouse latent myostatin [5] it was 60; in [6], 73.

B7: MS_M103245H1233-SG1/M103202L1045-SK1 (antibody, human IgG1, kappa, V domains shown)
VH: B2 VH with T23K, T32E, G49S, M60A
VL: B2 VL with Q24T, S25T, N32E, F58Y, L98R
notes: also called MS1032LO23-SG1
For B7, the Kd in the assay with Human latent myostatin [1] came to 16.1 nM; with Mouse latent myostatin [2], 6.4 nM; in assay [3], 7.71 nM; in the assay with Human latent myostatin [7], 0.26 nM; with Mouse latent myostatin [8], 0.266 nM; in assay [9], 0.299 nM. Besides, the “ratio of KD at pH 5.8/pH 7.4” value with Human latent myostatin [4] turned out to be 62; with Mouse latent myostatin [5], 24; in [6] it was 26.

B8: MS_M103205H781-SG1/M103202L813-SK1 (antibody, human IgG1, kappa, V domains shown)
VH: B2 VH
VL: B2 VL with S25T, N32D, F58S, L98R
notes: also called MS1032LO03-SG1; MSLO-03
On to B8, for which the Kd with Human latent myostatin [10] came to 1.08 nM; with Human latent myostatin [11], 0.196 nM; with Human latent myostatin [12], 9.66 nM. Also, the koff stood at 0.00117 s⁻¹ with Human latent myostatin [10], 0.000192 s⁻¹ with Human latent myostatin [11] and 0.00524 s⁻¹ with Human latent myostatin [12]. Moreover, the kon turned out to be 1.08e+06 M⁻¹ s⁻¹ with Human latent myostatin [10], 981000 M⁻¹ s⁻¹ with Human latent myostatin [11] and 543000 M⁻¹ s⁻¹ with Human latent myostatin [12].

B9: MS_M103205H1047-SG1/M103202L889-SK1 (antibody, human IgG1, kappa, V domains shown)
VH: B2 VH with S56K, T57K, M60A
VL: B2 VL with Q24T, N32A, F58Y, L98R
notes: also called MS1032LO11-SG1
Consider B9, for which the Kd with Human latent myostatin [1] turned out to be 143 nM; with Mouse latent myostatin [2] it was 29.2 nM; in assay [3], 43.5 nM; with Human latent myostatin [7], 0.419 nM; with Mouse latent myostatin [8], 0.362 nM; in assay [9] it was 0.502 nM. The “ratio of KD at pH 5.8/pH 7.4” value with Human latent myostatin [4] amounted to 341; with Mouse latent myostatin [5] it was 81; in assay [6], 87.
